Measurements published in patent US8323941B2, “Histone demethylation mediated by the nuclear amine oxidase homolog LSD1” (President and Fellows of Harvard College, priority 2004, dated 2012).

B1: del 1: CoREST deletion mutant aa 1-293 (protein)
chain: MVEKGPEVSGKRRGRNNAAASASAAAASAAASAACASPAATAASGAAASSASAAAASAAAAPNNGQNKSLAAAAPNGNSSSNSWEEGSSGSSSDEEHGGGGMRVGPQYQAVVPDFDPAKLARRSQERDNLGMLVWSPNQNLSEAKLDEYIAIAKEKHGYNMEQALGMLFWHKHNIEKSLADLPNFTPFPDEWTVEDKVLFEQAFSFHGKTFHRIQQMLPDKSIASLVKFYYSWKKTRTKTSVMDRHARKQKREREESEDELEEANGNNPIDIEVDQNKESKKEVPPTETVPQV
modifications: left off: small tags and cut ends
B2: del 4: CoREST deletion mutant aa 105-293 (protein)
chain: GPQYQAVVPDFDPAKLARRSQERDNLGMLVWSPNQNLSEAKLDEYIAIAKEKHGYNMEQALGMLFWHKHNIEKSLADLPNFTPFPDEWTVEDKVLFEQAFSFHGKTFHRIQQMLPDKSIASLVKFYYSWKKTRTKTSVMDRHARKQKREREESEDELEEANGNNPIDIEVDQNKESKKEVPPTETVPQV
modifications: left off: small tags and cut ends

Tests used:
[1] = molecular target: T1, GST-LSD1 (Homo sapiens, UniProt O60341); assay: GST pulldown of HIS-tagged CoREST and mutants; format: binding; conditions: Coomassie Blue staining
T1 construct: made in house; host or cells: bacteria (inferred from 'similar procedure' to the His-tagged proteins)
Method: To identify domains of CoREST that are involved in physical interactions with LSD1, GST-LSD1 or GST was incubated with bacterially purified, HIS-tagged CoREST and its mutant derivatives. […] This places the putative LSD1-binding domain within the C-terminal functional domain of CoREST, somewhere between aa 293-381 of CoREST. […] We therefore speculate that the SANT2 domain may be involved in mediate binding to the nucleosomal substrate. Taken together, these findings are consistent with the idea that CoREST functions as a bridging protein. The weak stimulatory activity of the N-terminal CoREST (del1, aa 1-293) remains unclear at the present time.
GST and GSTLSD1 plamsids were kind gifts from Dr. Tadashi Baba's Lab in Japan (Iwase et al., 2004). Expression and purification of GST and GSTLSD1 proteins were done using similar procedure as outlined for purification of his-tagged recombinant proteins. For GST-bead pulldown experiment, 2 μg of each purified his-tagged wt or del CoREST proteins were incubated with 5 μg of bound GST and GSTLSD1 proteins at 4° C. for 4 hrs in a binding buffer (50 mM Tris, pH 8.0, 300 mM NaCl, 1 mM DTT, 0.5 mM EDTA and 0.1% NP-40). The beads were washed 3 times in the binding buffer, resuspended in 2×SDS protein sample buffer, boiled for 5 mins and loaded onto 15% SDS PAGE gel. The gel was then stained with Coomassie Blue.

[2] = molecular target: T2, LSD1 (Homo sapiens, UniProt O60341); assay: LSD1 demethylation assay on nucleosomal substrates (mononucleosomes), Western blotting; format: biochemical; conditions: CoREST deletion mutant
T2 construct: Full length (1-851aa) and C-terminal deleted (1-427 aa) human LSD1 cDNAs; 6xHis (N); made in house; host or cells: bacteria
Method: Preparation of mononucleosome. Mononucleosome was made according to a standard protocol (Tagami et al., 2004; Utley et al., 1996). Briefly, nuclear pellet from both TSA-treated or non-treated HeLa cells was homogenized for 60 times with type A pestle to obtain oligo-nucleosomes. The oligo-nucleosomes were then digested with micrococcal nuclease (40 units/mL) for 10 mins at 30° C. The nuclease is inactivated by 5 mM EDTA. Digested materials were spun at 14000 rpm for 3 mins. Resulting supernatant was spun again for additional 3 mins at the same speed. Supernatant from the second spin was subject to 10-25% glycerol gradient sedimentation. The monocleosome-containing fractions were identified by examining aliquots of fractions (treated with proteinase K) on DNA agarose gel. An aliquot of TSA-treated or non TSA-treated mononucleosome, a kind gift from Dr. Yoshihiro Nakatani's Lab in Dana Faber Cancer Institute, Harvard Medical School (Tagami et al., 2004), was used here as a control for the quality of mononucleosome made in our lab.
Demethylation assay. LSD1 demethylation activity on free histone or nucleosomal histone was carried out as previously reported (Shi et al., 2004). […] The demethylase activity of LSD1 under various conditions was evaluated by Western blotting using K4-H3 methylation-specific antibodies.

Molecule | binding to LSD1 [1] | stimulatory activity on LSD1 demethylation [2]
B1 | did not | ~30 % of the wildtype CoREST activity
B2 | did not | –
